One assay concerns the target T1, wild type mouse βKlotho (mouse, UniProt Q99N32).
T1 sequence: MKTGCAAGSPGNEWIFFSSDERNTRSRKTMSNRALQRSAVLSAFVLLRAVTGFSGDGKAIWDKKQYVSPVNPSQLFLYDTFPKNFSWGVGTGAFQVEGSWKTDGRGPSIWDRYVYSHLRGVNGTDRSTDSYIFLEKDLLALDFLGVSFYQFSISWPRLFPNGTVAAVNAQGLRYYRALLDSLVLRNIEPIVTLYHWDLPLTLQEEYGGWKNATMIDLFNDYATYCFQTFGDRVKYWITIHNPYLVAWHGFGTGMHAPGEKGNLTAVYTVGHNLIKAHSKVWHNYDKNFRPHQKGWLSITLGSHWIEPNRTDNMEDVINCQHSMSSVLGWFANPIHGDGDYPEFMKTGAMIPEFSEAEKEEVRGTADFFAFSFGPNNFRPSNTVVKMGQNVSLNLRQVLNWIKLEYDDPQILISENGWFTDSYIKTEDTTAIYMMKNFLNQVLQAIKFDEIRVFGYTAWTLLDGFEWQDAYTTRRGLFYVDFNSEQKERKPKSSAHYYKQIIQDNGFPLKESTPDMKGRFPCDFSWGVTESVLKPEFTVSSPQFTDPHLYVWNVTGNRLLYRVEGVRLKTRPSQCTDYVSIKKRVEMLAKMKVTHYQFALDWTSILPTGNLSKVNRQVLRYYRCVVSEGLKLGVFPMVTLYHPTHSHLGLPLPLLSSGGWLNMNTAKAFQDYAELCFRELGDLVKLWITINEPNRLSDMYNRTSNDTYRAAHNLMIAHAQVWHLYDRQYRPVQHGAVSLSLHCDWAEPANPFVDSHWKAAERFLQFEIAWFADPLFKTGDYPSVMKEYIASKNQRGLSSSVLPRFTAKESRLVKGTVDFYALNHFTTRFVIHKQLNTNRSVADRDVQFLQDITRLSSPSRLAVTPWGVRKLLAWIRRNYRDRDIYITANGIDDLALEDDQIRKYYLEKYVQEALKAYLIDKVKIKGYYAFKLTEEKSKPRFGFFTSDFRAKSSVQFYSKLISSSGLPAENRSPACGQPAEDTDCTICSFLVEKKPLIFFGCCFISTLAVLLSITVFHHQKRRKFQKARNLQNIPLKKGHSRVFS
Kind of assay: cell-based or functional assay.

The next assay concerns the target human βKlotho (human, UniProt Q86Z14). The experiment in a line: cell-based or functional assay.

The values that follow come from patent publication US20150141335A1, “THERAPEUTIC USES OF FIBROBLAST GROWTH FACTOR 21 PROTEINS” (Eli Lilly and Company, published 2015).

B1: FGF21 protein of SEQ ID NO: 1 (ligand)
chain: HPIPDSSPLLQFGGQVRQRYLYTDDAQQTECHLEIREDGTVGCAADQSPESLLQLKALKPGVIQILGVKTSRFLCQRPDGALYGSLHFDPEACSFREDLLEDGYNVYQSEAHGLPLHLPGDKSPHRKPAPRGPARFLPLPGLPPALPEPPGILAPQPPDVGSSDPLRLVEPSQLLSPSFLG
For B1, the “glucose uptake (2-deoxy-D-(14C) glucose) in 3T3-L1-βKlotho fibroblasts, in vitro potency (EC50)” value with wild type mouse βKlotho was 26 pM. In addition, the “SRE driven luciferase in 293-βKlotho-SRE luc cells, in vitro potency (EC50)” value with human βKlotho is 250 pM.
